Measurements as given in patent publication US20110144187, “APTAMER INHIBITION OF THROMBUS FORMATION” (published 2011).
Numbering of substitutions follows the chain as printed.

Assays:
[1] = test system: fibrinogen (Homo sapiens), P02671-2+P02675+P02679-2; assay: filter; details: quinoline-8-boronic acid-modified T (B-TTP) replacing T outside the primer region; average Kd of DNA pool after round 13
[2] = biological target: T1, fibrinogen (Homo sapiens, UniProt P02671-2;P02675;P02679-2 P02671-2:20-629,P02675:31-491,P02679-2:27-437); assay: SPR; biotin-aptamer on streptavidin chip; details: tags: Sigma-Aldrich, from human plasma, about 60% protein, chain copies: 2
T1 sequence (P02671 20-629, chain 1 of 3): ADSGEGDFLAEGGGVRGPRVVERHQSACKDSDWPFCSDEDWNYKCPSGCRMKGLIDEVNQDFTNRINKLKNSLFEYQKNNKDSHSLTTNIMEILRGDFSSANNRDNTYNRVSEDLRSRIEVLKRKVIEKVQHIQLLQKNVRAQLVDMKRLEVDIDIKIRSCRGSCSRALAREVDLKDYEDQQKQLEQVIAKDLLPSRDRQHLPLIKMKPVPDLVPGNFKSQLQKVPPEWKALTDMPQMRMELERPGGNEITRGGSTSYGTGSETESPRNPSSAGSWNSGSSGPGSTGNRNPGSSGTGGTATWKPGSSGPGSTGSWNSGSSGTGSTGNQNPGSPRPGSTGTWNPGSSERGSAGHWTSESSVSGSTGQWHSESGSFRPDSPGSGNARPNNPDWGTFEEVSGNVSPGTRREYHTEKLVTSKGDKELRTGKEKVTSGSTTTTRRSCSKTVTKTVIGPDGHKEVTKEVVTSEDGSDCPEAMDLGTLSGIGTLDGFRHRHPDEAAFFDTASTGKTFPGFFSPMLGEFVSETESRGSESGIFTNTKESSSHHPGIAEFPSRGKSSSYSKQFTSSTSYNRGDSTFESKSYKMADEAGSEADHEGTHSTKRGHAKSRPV
T1 sequence (P02675 31-491, chain 2 of 3): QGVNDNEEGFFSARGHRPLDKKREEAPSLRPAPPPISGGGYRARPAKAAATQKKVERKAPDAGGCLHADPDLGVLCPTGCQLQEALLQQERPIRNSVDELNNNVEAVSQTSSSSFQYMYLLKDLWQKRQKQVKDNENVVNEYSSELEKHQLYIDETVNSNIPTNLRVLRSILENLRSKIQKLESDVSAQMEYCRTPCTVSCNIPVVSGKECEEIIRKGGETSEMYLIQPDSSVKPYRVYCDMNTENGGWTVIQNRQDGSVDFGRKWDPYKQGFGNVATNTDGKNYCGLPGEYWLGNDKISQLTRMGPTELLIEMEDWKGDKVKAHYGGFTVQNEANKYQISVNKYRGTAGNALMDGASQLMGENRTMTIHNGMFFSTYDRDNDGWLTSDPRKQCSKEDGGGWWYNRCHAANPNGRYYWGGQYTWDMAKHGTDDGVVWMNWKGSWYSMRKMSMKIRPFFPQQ
T1 sequence (P02679 other isoform, or with tags, fused parts or gaps, chain 3 of 3): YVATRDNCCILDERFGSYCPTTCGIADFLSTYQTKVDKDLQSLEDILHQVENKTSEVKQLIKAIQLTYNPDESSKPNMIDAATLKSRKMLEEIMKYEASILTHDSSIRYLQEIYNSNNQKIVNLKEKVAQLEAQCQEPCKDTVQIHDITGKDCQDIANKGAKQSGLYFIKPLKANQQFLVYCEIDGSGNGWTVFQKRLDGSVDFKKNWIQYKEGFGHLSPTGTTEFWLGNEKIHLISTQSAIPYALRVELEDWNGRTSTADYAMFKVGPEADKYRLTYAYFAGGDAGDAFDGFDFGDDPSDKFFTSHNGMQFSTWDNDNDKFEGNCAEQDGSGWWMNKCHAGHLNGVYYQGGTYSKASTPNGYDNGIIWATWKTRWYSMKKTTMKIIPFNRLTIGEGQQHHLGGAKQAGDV
Description: 0.2 M EDC and 0.05 M NHS were mixed in water. After degassing, 500 μL of this EDC-NHS solution was infused into both channels on the chip over a period of about 10 min (twice). Then a 1 mg/mL streptavidin stock solution was diluted 10-fold with 20 mM sodium acetate buffer at pH 5.2. The streptavidin solution (500 μL) was infused into both the detection and control channels over about 10 min period. […] 1M ethanolamine HCl solution (500 μL) (pH 8.5) was infused in over a period of 3 min to cap un-reacted (and activated) carboxyl sites. Then biotin-labeled aptamer (B-TTP or d-TTP) solution (500 μL, in PBS/T) was infused into the detection channel only over a period of about 10 min (twice). After aptamer immobilization, different fibrinogen concentrations were used in binding studies. In each run, fibrinogen solution was infused in at a flow rate of 0.05 mL/min for 6 min. After each injection, 1M ethanolamine HCl (pH 8.5) solution was infused in as the regeneration solution. All experiments were duplicated.
The KD values were obtained for aptamer 85B (SEQ ID NO.: 14) and its mutational analogs by using a surface plasmon resonance (SPR) instrument. SPR is a method to detect the index of the refraction of surface bound layers, as described by Karlsson et al., (2000) J. Anal. Biochem. 278: 1-13, and Shimomura et al., (2001) Anal. Chim. Acta. 434: 223-230 both of which are incorporated herein by reference in their entireties). This method has been used to determine the kinetic on and off rates for the interactions between biomolecules and binding receptors. In the aptamer-fibrinogen binding studies, streptavidin was immobilized to chips coated with a SAM surface that has terminal carboxyl functional groups. Biotin-labeled DNA was subsequently immobilized on the chip through biotin-streptavidin interactions. Fibrinogen solutions of various concentrations were then used for binding constant determination using kinetic data, as described by Lin et al., (2007). […] Opin. Biotechnol. 8: 498-502; Myszka, D. G. (2000) Methods Enzymol. 323: 325-340; and Myszka & Rich (2000) Pharm. Sci. Technology Today 3: 310-317. Table 6 lists the KD values of 85B and its mutations.

[3] = biological target: T1, fibrinogen; assay: filter; equilibrium filtration, same buffer; details: tags: Sigma-Aldrich, from human plasma, about 60% protein; chain copies: 2; label: 32P (filtration) or 5'-biotin (SPR)
Description: (§1) Dissociation constants in solution were determined by equilibrium filtration (Jenison et al., Science 1994, 263, 1425-1429; Huang & Szostak, RNA 2003, 9: 1456-1463;). Using this technique, the bound and unbound ligand (DNA) partition between the two portions were separated by a membrane. DNA was first amplified into dsDNA using two primers by PCR (25 cycles of 0.5 min at 94° C., 0.5 min at 46° C., and 0.5 min at 72° C., followed by 5 min at 72° C.). The dsDNA product was then split into ssDNA using one primer and α-³²P-dATP by one-round PCR. The ³²P-labeled ssDNA ligand (10 nM) and the protein (1-1000 nM) in the 100 μL of binding buffer were incubated for 15 min at 25° C. prior to loading into the Microcon YM-100 unit (Millipore, Billerica, Mass.). The solution was centrifuged at 13,000 g for 10 sec to saturate the membrane, and the filtrate was transferred back to the unit. […] Aliquots (10 μL) were taken from both the remaining solution and the filtrate, and radioactivity in each aliquot was determined by Beckman LS 6500 liquid scintillation counter. […]
(§2) To determine the extent to which the aptamers 85A (SEQ ID NO.: 13), 85B (SEQ ID NO.: 14), and 85C (SEQ ID NO.: 15) bind specifically to fibrinogen, their dissociation constants (Kd) were measured using the equilibrium filtration method with radiolabeled α-³²P-dATP. […]

[4] = biological target: T2, deglycosylated fibrinogen (TFMS-treated) (Homo sapiens, UniProt P02671-2;P02675;P02679-2 P02671-2:20-629,P02675:31-491,P02679-2:27-437); assay: filter; equilibrium filtration; details: tags: Sigma-Aldrich fibrinogen, chemically deglycosylated with trifluoromethanesulfonic acid, chain copies: 2
T2 sequence (P02671 20-629, chain 1 of 3): as the sequence (P02671 20-629, chain 1 of 3) above
T2 sequence (P02675 31-491, chain 2 of 3): as the sequence (P02675 31-491, chain 2 of 3) above
T2 sequence (P02679 other isoform, or with tags, fused parts or gaps, chain 3 of 3): as the sequence (P02679 other isoform, or with tags, fused parts or gaps, chain 3 of 3) above
Description: (§3) Dissociation constants in solution were determined by equilibrium filtration (Jenison et al., Science 1994, 263, 1425-1429; Huang & Szostak, RNA 2003, 9: 1456-1463;). Using this technique, the bound and unbound ligand (DNA) partition between the two portions were separated by a membrane. DNA was first amplified into dsDNA using two primers by PCR (25 cycles of 0.5 min at 94° C., 0.5 min at 46° C., and 0.5 min at 72° C., followed by 5 min at 72° C.). The dsDNA product was then split into ssDNA using one primer and α-³²P-dATP by one-round PCR. The ³²P-labeled ssDNA ligand (10 nM) and the protein (1-1000 nM) in the 100 μL of binding buffer were incubated for 15 min at 25° C. prior to loading into the Microcon YM-100 unit (Millipore, Billerica, Mass.). The solution was centrifuged at 13,000 g for 10 sec to saturate the membrane, and the filtrate was transferred back to the unit. The solution was centrifuged for another 20 sec, and the filtrate (about 10 μL) was collected. Aliquots (10 μL) were taken from both the remaining solution and the filtrate, and radioactivity in each aliquot was determined by Beckman LS 6500 liquid scintillation counter. All binding assays were duplicated. The equilibrium dissociation constants (Kd) of the ligand-protein interaction were obtained by fitting the dependence of bound fractions of specific binding on the concentration of the […] to the equation Y=B max X/(Kd+X), using the SigmaPlot program.
(§4) To determine the extent to which the aptamers 85A (SEQ ID NO.: 13), 85B (SEQ ID NO.: 14), and 85C (SEQ ID NO.: 15) bind specifically to fibrinogen, their dissociation constants (Kd) were measured using the equilibrium filtration method with radiolabeled α-³²P-dATP. The target substrate to which the aptamer was binding was fibrinogen (FIG. 12A), deglycosylated fibrinogen (FIG. 12B) and periodated fibrinogen (FIG. 12C).

[5] = biological target: T3, periodate-treated fibrinogen (Homo sapiens, UniProt P02671-2;P02675;P02679-2 P02671-2:20-629,P02675:31-491,P02679-2:27-437); assay: filter; equilibrium filtration; details: tags: Sigma-Aldrich fibrinogen, glycans oxidised with sodium periodate, chain copies: 2
T3 sequence (P02671 20-629, chain 1 of 3): as the sequence (P02671 20-629, chain 1 of 3) above
T3 sequence (P02675 31-491, chain 2 of 3): as the sequence (P02675 31-491, chain 2 of 3) above
T3 sequence (P02679 other isoform, or with tags, fused parts or gaps, chain 3 of 3): as the sequence (P02679 other isoform, or with tags, fused parts or gaps, chain 3 of 3) above
Description: as §3, §4

[6] = biological target: T1, fibrinogen; assay: filter; equilibrium filtration; Table 1 prints a different (93, possibly truncated) value; details: tags: Sigma-Aldrich, from human plasma, about 60% protein; chain copies: 2; label: 32P (alpha-32P-dATP)
Description: as §1, §2

[7] = biological target: T2, deglycosylated fibrinogen (TFMS-treated); assay: filter; equilibrium filtration; value as printed; details: tags: Sigma-Aldrich fibrinogen, chemically deglycosylated with trifluoromethanesulfonic acid; chain copies: 2; label: 32P (alpha-32P-dATP)
Description: as §1, §2

[8] = biological target: T3, periodate-treated fibrinogen; assay: filter; equilibrium filtration; value as printed; details: tags: Sigma-Aldrich fibrinogen, glycans oxidised with sodium periodate; chain copies: 2; label: 32P (alpha-32P-dATP)
Description: as §1, §2

[9] = biological target: T1, fibrinogen; assay: filter; equilibrium filtration; Tables 3 and 4 give 102 ± 40; details: tags: Sigma-Aldrich, from human plasma, about 60% protein; chain copies: 2; label: 32P (alpha-32P-dATP)
Description: as §1, §2

[10] = biological target: T1, fibrinogen; assay: filter; equilibrium filtration; peroxide-treated aptamer; details: tags: Sigma-Aldrich, from human plasma, about 60% protein; chain copies: 2; label: 32P (alpha-32P-dATP)
[11] = biological target: T1, fibrinogen; assay: filter; equilibrium filtration; details: tags: Sigma-Aldrich, from human plasma, about 60% protein; chain copies: 2; label: 32P (alpha-32P-dATP)
Description: as §3, §4

[12] = label: 32P (filtration) or 5'-biotin (SPR)

Chain of fibrinogen (Homo sapiens), P02671-2+P02675+P02679-2 (P02671 20-629, chain 1 of 3): as the sequence (P02671 20-629, chain 1 of 3) above
Chain of fibrinogen (Homo sapiens), P02671-2+P02675+P02679-2 (P02675 31-491, chain 2 of 3): as the sequence (P02675 31-491, chain 2 of 3) above
Chain of fibrinogen (Homo sapiens), P02671-2+P02675+P02679-2 (P02679 other isoform, or with tags, fused parts or gaps, chain 3 of 3): as the sequence (P02679 other isoform, or with tags, fused parts or gaps, chain 3 of 3) above

**Q.** For “CCTTCGTTGTCTGCCTTCGTNNNNNNNNNNNNNNNNNNNNNNNNNNNNNNNNNNNNNNNNNNNNNNNNNNACCCTTCAGAATTCGCACCA [round 13 SELEX pool B-TTP]”, which Kd [1] is on record?
**A.** The Kd was 5000 nM.

B1: 85B-2 B-TTP (ssDNA)
DNA: CCTTCGTTGTCTGCCTTCGTAGGACCGCAGACATCGACGCAGGGAAAATCCGCAAGTCCAGCCAAATGCCACCCTTCAGAATTCGCACCA
modifications: quinoline-8-boronic acid-modified T (B-TTP) replacing T outside the primer region
**Q.** How did the Kd ([2]; label: 5'-biotin) turn out when B1 was run?
**A.** The Kd was 63.7 nM.

B2: 85B-1 dTTP (ssDNA)
DNA: B1 DNA with T34A, A48T
modifications: none (natural T)
**Q.** B2 was tested. Which Kd ([2]; label: 5'-biotin) did it give?
**A.** Its Kd is 507 nM.

B3: 85B-5 dTTP (ssDNA)
DNA: B1 DNA with A48T, T67A
modifications: none (natural T)
**Q.** For B3, which Kd ([2]; label: 5'-biotin) is on record?
**A.** The Kd was 1080 nM.

B4: 85B-5 B-TTP (ssDNA)
DNA: B1 DNA with A48T, T67A
modifications: quinoline-8-boronic acid-modified T (B-TTP) replacing T outside the primer region
**Q.** For B4, which Kd ([2]; label: 5'-biotin) is on record?
**A.** The Kd was 329 nM.

B5: 85B-3 B-TTP (ssDNA)
DNA: B1 DNA with T34A, A48T, T49A
modifications: quinoline-8-boronic acid-modified T (B-TTP) replacing T outside the primer region
**Q.** For B5, which Kd ([2]; label: 5'-biotin) is on record?
**A.** Its Kd is 17.6 nM.

B6: 85B-1 B-TTP (ssDNA)
DNA: B1 DNA with T34A, A48T
modifications: quinoline-8-boronic acid-modified T (B-TTP) replacing T outside the primer region
**Q.** B6 was tested. Which Kd ([2]; label: 5'-biotin) did it give?
**A.** Its Kd is 205 nM.

B7: 85B-4 dTTP (ssDNA)
DNA: B1 DNA with A48T, T57A, T67A
modifications: none (natural T)
**Q.** For B7, which Kd ([2]; label: 5'-biotin) is on record?
**A.** The Kd was 238 nM.

B8: 85B-3 dTTP (ssDNA)
DNA: B1 DNA with T34A, A48T, T49A
modifications: none (natural T)
**Q.** For B8, which Kd ([2]; label: 5'-biotin) is on record?
**A.** Its Kd is 233 nM.

B9: 85B-2 dTTP (ssDNA)
DNA: B1 DNA
modifications: none (natural T)
**Q.** How did the Kd ([2]; label: 5'-biotin) turn out when B9 was run?
**A.** Its Kd is 127 nM.

B10: 85B-4 B-TTP (ssDNA)
DNA: B1 DNA with A48T, T57A, T67A
modifications: quinoline-8-boronic acid-modified T (B-TTP) replacing T outside the primer region
**Q.** For B10, which Kd ([2]; label: 5'-biotin) is on record?
**A.** The Kd was 11.2 nM.

B11: 85B TTP (ssDNA)
DNA: B1 DNA with A48T
modifications: none (natural T)
**Q.** How did the Kd [3] turn out when B11 was run?
**A.** Its Kd is 63.8 nM.

**Q.** And the Kd [4, 12]?
**A.** The Kd was 140 nM.

**Q.** And the Kd [5, 12]?
**A.** The Kd was 130 nM.

**Q.** And the Kd [2, 12]?
**A.** The Kd was 127 nM.

B12: 85C TTP (ssDNA)
DNA: CCTTCGTTGTCTGCCTTCGTAGTCGACTCTGACGCATGGACGTATCCTGTGCGTATGCATTATGAAGCACACCCTTCAGAATTCGCACCA
modifications: none (natural T)
**Q.** With B12 as the molecule, how does the Kd [6] read?
**A.** The Kd was 122 nM.

**Q.** What about the Kd ([4]; label: 32P (alpha-32P-dATP)) of the same molecule?
**A.** The Kd was 256 nM.

**Q.** What about the Kd ([5]; label: 32P (alpha-32P-dATP)) of the same molecule?
**A.** Its Kd is 321 nM.

B13: 85A TTP (ssDNA)
DNA: CCTTCGTTGTCTGCCTTCGTAGCGGATCGAATTACGCGTTAACGGCAACCGATAACGGGACCGATTGCACACCCTTCAGAATTCGCACCA
modifications: none (natural T)
**Q.** For B13, which Kd [7] is on record?
**A.** Its Kd is 60.2 nM.

**Q.** And the Kd [8]?
**A.** Its Kd is 67.4 nM.

**Q.** What about the Kd [9] of the same molecule?
**A.** The Kd was 102 nM.

B14: 85A B-TTP, H2O2-treated (ssDNA)
DNA: B13 DNA
modifications: B-TTP-derived T with boronic acid removed by peroxide oxidation
**Q.** Which Kd [10] does the source give for B14 here?
**A.** Its Kd is 173 nM.

B15: 85A M-TTP (ssDNA)
DNA: B13 DNA
modifications: 5-alkynyl-amide T without boronic acid (M-TTP) replacing T outside the primer region
**Q.** With B15 as the molecule, how does the Kd [11] read?
**A.** The Kd was 138 nM.
